Source: US20060287320A1, “Preparation of thioarabinofuranosyl compounds and use thereof” (Southern Research Institute, priority 1998, published 2006)

Tested on: T1, Nc1ccn([C@@H]2S[C@H](CO)[C@@H](O)[C@@H]2O)c(=O)n1
T1 construct: endogenous in cells; host or cells: Molt-4 cells (enzyme purified from the cells)
Assay: purified protein, by the assay type
Format: biochemical
Conditions: other: dCyd kinase activity from Molt-4 cells
Description: Each assay was done in duplicate and the kinetic constants were determined from linear double-reciprocal plots of 1/velocity versus 1/concentration of the substrate. The best line was determined by linear regression from at least 5 datum points, and the Km and Vmax were determined from the x and y intercepts.

Chain of dCyd Kinase Activity Isolated from Molt-4 Cells (Homo sapiens) (chain, as listed by the source): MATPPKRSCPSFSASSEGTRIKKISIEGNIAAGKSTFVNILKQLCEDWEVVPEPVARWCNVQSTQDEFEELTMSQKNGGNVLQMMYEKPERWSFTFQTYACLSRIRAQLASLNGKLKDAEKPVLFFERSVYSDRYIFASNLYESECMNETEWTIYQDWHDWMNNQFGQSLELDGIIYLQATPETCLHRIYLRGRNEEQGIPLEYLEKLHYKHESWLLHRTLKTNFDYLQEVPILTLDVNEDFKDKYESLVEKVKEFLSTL

dCyd Kinase Activity Isolated from Molt-4 Cells (Homo sapiens)
Km: 93 µM
